In patent US20080268015A1 (AFFINERGY, published 2008):
Primed or numbered codes have the meaning given here. Where no end group is shown, it is not given here. [ ]: non-standard residue; d: D form. PEG10′ = non-peptide PEG10 spacer

biological target: BMP2 (Bone Morphogenetic Protein 2) (UniProt P12643 283-396); assay: ELISA: composition (10 uM) pre-bound to DBM, serial dilutions of BMP-2, detected with anti-BMP-2 antibody
Description: A binding assay was performed using ELISA; and the resultant absorbance observed across the concentration range of pharmaceutically active agent yielded a binding curve and rough dissociation constant of the composition which were used to calculate an EC50. Appropriate controls, including absence of the composition, were included in the assay.
As a specific example, DBM was placed in a microtiter plate at a concentration of 3 mg equivalents per well, and then the wells and DBM were blocked with buffer containing 1% BSA for 1 hour at room temperature. The buffer containing 1% BSA was then aspirated from each well, and added to each of the wells was 100 μl of buffer containing 10 μM of the respective composition embodiments. The microtiter plates were incubated for 1 hour at room temperature on a plate shaker. The DBM was then allowed to settle, and the buffer was then aspirated from the wells. The DBM was washed three times with buffer-T, and then serial dilutions of BMP-2 were added to the wells in 100 μl of buffer. The microtiter plates were then incubated for 1 hour at room temperature on a plate shaker. The DBM, having composition bound thereto, was then allowed to settle, and then buffer was aspirated from the wells. The DBM-composition combination was washed three times with buffer-T. Commercial murine anti-BMP-2 antibody was diluted 1:1000 in buffer containing 1% BSA, and 100 μl was added per well. The plates were incubated for 30 minutes at room temperature on a plate shaker, and then the wash step was repeated. Commercial anti-mouse antibody labeled with alkaline phosphatase was diluted 1:1000 in buffer containing 1% BSA, and 100 μl was added per well. The plates were incubated for 30 minutes at room temperature on a plate shaker, and then the wash step was repeated. Added to each well was 200 μl of substrate pNPP, and the plates were incubated at room temperature on a plate shaker to develop the assay. 100 μl of solution was removed from each well and added to a respective well of a new microtiter plate which was then read on a spectrophotometer and the absorbance was recorded at 405 nm. An estimate of the relative affinity, binding specificity, EC50 of the composition for pharmaceutically active agent can be made by determining the concentration of peptide that provides one-half the maximal signal in the assay.

Sequence of BMP2 (Bone Morphogenetic Protein 2) (P12643 283-396 limits assumed): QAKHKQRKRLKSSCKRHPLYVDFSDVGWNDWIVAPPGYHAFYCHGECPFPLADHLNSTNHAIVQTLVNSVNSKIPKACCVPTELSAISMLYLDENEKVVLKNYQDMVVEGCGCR

EC50, < 10 nM:
SWWGFWNGSAAPVWSRGSSGAGAWEAFSSLSGSRVGSSGK (also: biotin linked to C-terminal GSSGK linker, site not given here)
SWWGFWNGSAAPVWSRGSSESAGAWEAFSSLSGSRVGSSGK (also: biotin linked to C-terminal GSSGK linker, site not given here)
SFGSWWWGSGAASSRG[PEG10′]GGGAWEAFSSLSGSRVGSSGK (also: C-terminal amino linker biotinylated)
SWWGFWNGSAAPVWSRGSSGAGALGFPLKGEVVEGWAGSSGK (also: biotin linked to C-terminal GSSGK linker, site not given here)
SFGSWWWGSGAASSRGSSGGGALGFPLKGEVVEGWAGSSGK (also: biotin linked to C-terminal GSSGK linker, site not given here)
SFGSWWWGSGAASSRG[PEG10′]AGAWEAFSSLSGSRVGSSGK (also: C-terminal amino linker biotinylated)
